Measurements reported in patent publication US20090022687A1, “Novel Pharmaceuticals That Use Anti-HLA Antibodies” (Chugai Seiyaku Kabushiki Kaisha, priority 2005, published 2009).

Assays:
HLA-A on myeloma cells = assay: HLA-A expression in BMMCs of MM patients (flow cytometry, FITC-labeled 2D7 mAb); format: binding, human; conditions: BM samples of 22 MM patients, mean±SD
Procedure: (§1) After cell gating (R1: CD38-positive MM cells; R2: myeloid cells; and R3: lymphocytes), each cell population was evaluated for HLA-A expression. (B) BMMCs derived from 22 MM patients were analyzed for HLA-A expression.
(§2) Patients' MM cells were prepared as follows. First clinical disease stage classification and diagnosis of MM patients were performed according to the Durie and Salmon classification (Durie, B. CT, and S. E. Salmon. 1975. “A clinical staging system for multiple myeloma. Correlation of measured myeloma cell mass with presenting clinical features, response to treatment, and survival,” Cancer, 36:842-854). Bone marrow samples were collected from patients after obtaining informed consent upon approval by the ethics committee of The University of Tokushima. The bone marrow mononuclear cells (BMMCs) were separated by Ficoll-Hypaque (density of 1.077) centrifugation. Patient-derived MM cells were further purified from BMMCs using CD138 microbeads (Miltenyi Biotec, Auburn, Calif.).
(§3) Cell surface expression analysis of HLA class I by flow cytometry was performed as follows using FITC-labeled 2D7 mAb or FITC-labeled anti-HLA-ABC common region mAb (Chemicon, San Diego, Calif.). The cells (5×10^5 cells) were washed twice with PBS, and then incubated on ice for 40 minutes with FITC-labeled 2D7 mAb or FITC-labeled anti-HLA-ABC common region mAb. MM patient-derived BMMCs were incubated on ice for 15 minutes with 2% γ globulin diluted in PBS, and stained with FITC-labeled 2D7 mAb and PE-labeled anti-CD38 mAb (BD Bioscience, San Jose, Calif.) for myeloma cell gating. Next, the cells were washed twice with PBS, and analyzed using an EPICS XL flow cytometer (Beckman Coulter, Japan). […] HLA class I expression levels were evaluated as GeoMFI using the CellQuest software (BID Biosciences).
(§4) Next, HLA-A expression in BMMCs of MM patients was examined. […] After gating the cells according to their side-scattered light profile and CD38 expression, each of the cell populations comprising myeloma cells, myeloid cells, and lymphocytes was analyzed for HLA-A expression. […]

HLA-A on lymphocytes = assay: as above; format: binding, human; conditions: BM samples of 22 MM patients, mean±SD
Procedure: as §1, §2, §3, §4

HLA-A on myeloid cells = assay: as above; format: binding, human; conditions: BM samples of 22 MM patients, mean±SD
Procedure: as §1, §2, §3, §4

HLA-A on CD34+ cells = assay: Two-color flow cytometry of a peripheral blood stem cell collection; format: binding, human; conditions: CD34+ cells in a peripheral blood stem cell collection, n=3
[1] = system: HLA class I on MKN-1 cells; assay: Cell surface expression analysis of HLA class I by flow cytometry; format: binding, human; conditions: MKN-1, gastric adenocarcinoma cells; FITC-labeled mAb
Procedure: (§5) Reactivity of 2D7 mAb in tumor cell lines and myeloma cells derived from multiple myeloma patients were assessed by flow cytometry.
(§6) The tumor cell lines used were prepared as follows. The myeloma cell line RPMI 8226, B lymphoblastic cell lines (IM-9, Raji, H S-Sultan, and Daudi), the T lymphoblastic cell line CEM, the chronic myeloid leukemia cell line K562, the lung adenocarcinoma cell line A549, the colon adenocarcinoma cell line COLO 201, and the gastric adenocarcinoma cell line MKN-1 were obtained from the Health Science Resources Bank (Osaka, Japan). The myeloma cell line U266-B1, the B lymphoblastic cell line ARH-77, the T-lymphoblastic cell line Jurkat the breast cancer cell line MCF-7, the hepatocellular carcinoma HepG2, the clear cell renal cell carcinoma Caki-2, and the malignant melanoma MeWo were obtained from the American Type Culture Collection (Manassas, Va.). The EBV-transformed B-cell line YN was a gift from Dr. Yasuhiko Nishioka (The University of Tokushima). These cell lines were cultured in an RPM-1640 medium (Sigma-Aldrich, St. Louis, Mo.) supplemented with 10% fetal calf serum (Gibco BRL, Grand Island, N.Y.) and penicillin (100 U/mL) under a humidified atmosphere of 5% CO2 at 37° C.
(§7) Cell surface expression analysis of HLA class I by flow cytometry was performed as follows using FITC-labeled 2D7 mAb or FITC-labeled anti-HLA-ABC common region mAb (Chemicon, San Diego, Calif.). The cells (5×10^5 cells) were washed twice with PBS, and then incubated on ice for 40 minutes with FITC-labeled 2D7 mAb or FITC-labeled anti-HLA-ABC common region mAb. MM patient-derived BMMCs were incubated on ice for 15 minutes with 2% γ globulin diluted in PBS, and stained with FITC-labeled 2D7 mAb and PE-labeled anti-CD38 mAb (BD Bioscience, San Jose, Calif.) for myeloma cell gating. Next, the cells were washed twice with PBS, and analyzed using an EPICS XL flow cytometer (Beckman Coulter, Japan). In several experiments, the cells were stimulated for 48 hours with IFNα or IFNγ prior to HLA class I expression analysis. HLA class I expression levels were evaluated as GeoMFI using the CellQuest software (BID Biosciences).

[2] = system: HLA class I on K562 cells; assay: as above; format: binding, human; conditions: K562, chronic myeloid leukemia cells; FITC-labeled mAb
Procedure: as §5, §6, §7

[3] = system: HLA class I on Caki-2 cells; assay: as above; format: binding, human; conditions: Caki-2, clear cell renal cell carcinoma; FITC-labeled mAb
Procedure: as §5, §6, §7

[4] = system: HLA class I on Raji cells; assay: as above; format: binding, human; conditions: B-lymphoblastic cells, FITC-labeled mAb
Procedure: as §5, §6, §7

HLA class I on YN cells = assay: as above; format: binding, human; conditions: EBV-transformed B-cells, FITC-labeled mAb
Procedure: as §5, §6, §7

[5] = system: HLA class I on Daudi cells; assay: as above; format: binding, human; conditions: B-lymphoblastic cells, FITC-labeled mAb
Procedure: as §5, §6, §7

IM-9 cells = assay: Cytotoxicity assay (WST-8 cell viability); format: cell-based, human; conditions: IM-9, 24 hours after cross-linking with the secondary antibody
Procedure: In other experiments, cells were cultured with 2D7-DB in the absence of the goat anti-mouse IgG antibody. Cell viabilities were determined by WST-8 assays or Trypan Blue exclusion assays. […] (B) The morphological observations of myeloma cells after 2D7-DB treatment are shown. Purified MM cells derived from patient No. 18 were cultured for 24 hours in the presence (1 μg/mL) or absence of 2D7-DB. Next, cells were fixed on glass slides and stained with light Giemsa (original magnification,×1000). (C) A graph indicating the cytotoxic activity of 2D7-DB on the patients' MM cells is shown. CD138-positive MM cells were purified from six patients, and the cells were cultured for 24 hours with 2D7-DB (0.1 or 1μg/mL). Cell viabilities were determined by Trypan Blue exclusion assays.
Cytotoxicity assays were performed as follows. […] Cell viabilities were measured by WST-8 assays (Kishida Chemical, Osaka, Japan) for the cell lines, and by Trypan Blue dye exclusion assays for patient-derived primary MM cells. Apoptosis induction was assessed by flow cytometric analysis with Annexin V and PI staining (MEBCYTO apoptosis kit MBL, Nagoya, Japan).
Next, cytotoxic effects of single chain Fv-type 2D7 mAb (2D7-DB) on MM cell lines and patient-derived MM cells were assessed. […]

B1: 2D7: monoclonal antibody obtained by immunizing human myeloma cells; recognizes HLA class I (HLA-A) (antibody, V domains shown)
VH: QVQLQQSGPELVKPGASVKMSCKASGYTFTDYFIHWVKQRPGQGLEWIGWIFPGDDTTDYNEKFRGKTTLTADKSSSTAYILLSSLTSEDSAMYFCVRSDDFDYWGQGTTLTVSS
VL: QIVLTQSPAIMSASPGEKVTITCSASSSVSYMHWFQQKPGTFPKLWIYSTSNLASGVPTRFSGSGSGTSYSLTISRMEAEDAATYYCQQRTSYPPTFGSGTKLEIK
HLA expression level, geometric mean fluorescence intensity (GeoMFI) (HLA-A on myeloma cells): 1309±1130 | HLA expression level, geometric mean fluorescence intensity (GeoMFI) (HLA-A on lymphocytes): 91±44 | HLA expression level, geometric mean fluorescence intensity (GeoMFI) (HLA-A on myeloid cells): 201±209 | HLA-A expression, GeoMFI (HLA-A on CD34+ cells): 109±16 | Expression (geometric mean fluorescence intensity) [1]: 49 | Expression (geometric mean fluorescence intensity) [2]: 11 | Expression (geometric mean fluorescence intensity) [3]: 13 | Expression (geometric mean fluorescence intensity) [4]: 297 | Expression (geometric mean fluorescence intensity) (HLA class I on YN cells): 804 | Expression (geometric mean fluorescence intensity) [5]: 2 | inhibition of cell viability (IM-9 cells): more efficiently than W6/32, B9.12.1, and JOAN-1
